Data set [1] has as its target T1, Variant Surface Glycoprotein VSG2 on living VSG2-expressing bloodstream form trypanosomes (Trypanosoma brucei, UniProt P26332). As to the kind of experiment: Western blot of washed cells after incubation with nanobody. A general note: Immunoblotting shows a protein as a band on a membrane.
Data set [2] has as its target T2, Variant Surface Glycoprotein VSG2, soluble purified form (Trypanosoma brucei, UniProt P26332). In words: crystal structure.
Data set [3] deals with T1, Variant Surface Glycoprotein VSG2 on …. As to the kind of experiment: flow cytometry on cells. For orientation: In flow cytometry, cells or beads pass a laser one at a time.
Data set [4] has as its target T2, Variant Surface Glycoprotein VSG2, …. As to the kind of experiment: SEC.
The data set “crystal structure” deals with the molecule itself. In words: crystal structure.

B1: NB9_(VSG2) (VHH)
VHH: QVQLQESGGGLVQAGGSLRLSCTTSGLTFSNYAFSWFRQAPGEEREFVGAISWSGGRTDYADSVKGRFTISRDNAKNTFYLQMNSLKTEDTAVYYCAADLLGEGSRRSEYEYWGQGTQVTVSS
With B1, the binding result in data set [1] and in data set [2] was “binds” each time.

B2: NB9_(VSG2) sortagged with FAM (VHH)
VHH: QVQLQESGGGLVQAGGSLRLSCTTSGLTFSNYAFSWFRQAPGEEREFVGAISWSGGRTDYADSVKGRFTISRDNAKNTFYLQMNSLKTEDTAVYYCAADLLGEGSRRSEYEYWGQGTQVTVSS
Turning to B2, the binding result in data set [3] was “binds”.

B3: NB14_(VSG2) sortagged with FAM (VHH)
VHH: QVQLQESGGGLVQAGGSLRLSCEASGLTFSNYAMAWFRQAPEKEREFVAGISWTGSRTYYADSVRGRFTTSRDGHKNTVYLQMNDLKPEDTAVYLCAADLLGSGKDGTSVYEYWGQGTQVTVSS
In the case of B3, in data set [3], the binding result was “binds”.

B4: NB14_(VSG2) (VHH)
VHH: QVQLQESGGGLVQAGGSLRLSCEASGLTFSNYAMAWFRQAPEKEREFVAGISWTGSRTYYADSVRGRFTTSRDGHKNTVYLQMNDLKPEDTAVYLCAADLLGSGKDGTSVYEYWGQGTQVTVSS
For B4, the binding result in data set [1] and in data set [2] was “binds” throughout.

B5: NB11_(VSG2) mutant L100A (VHH)
VHH: QVQLQESGGGLVQAGGSLTLSCAVSGLTFSNYAMGWFRQAPGKEREFVAAITWDGGNTYYTDSVKGRFTISRDNAKNTVFLQMNSLKPEDTAVYYCAAKALGSSRYELALAGYDYWGQGTQVTVSS
B5: the binding result in data set [4] is “binds”.

B6: NB11_(VSG2) mutant L101A (VHH)
VHH: QVQLQESGGGLVQAGGSLTLSCAVSGLTFSNYAMGWFRQAPGKEREFVAAITWDGGNTYYTDSVKGRFTISRDNAKNTVFLQMNSLKPEDTAVYYCAAKLAGSSRYELALAGYDYWGQGTQVTVSS
For B6, the binding result in data set [4] is on record as “binds”.

B7: NB11_(VSG2) triple mutant L100/L101/S103 (VHH)
VHH: QVQLQESGGGLVQAGGSLTLSCAVSGLTFSNYAMGWFRQAPGKEREFVAAITWDGGNTYYTDSVKGRFTISRDNAKNTVFLQMNSLKPEDTAVYYCAAKAAGASRYELALAGYDYWGQGTQVTVSS
On to B7, for which, in data set [4], the binding result is “no binding”.

B8: NB11_(VSG2) mutant S103A (VHH)
VHH: QVQLQESGGGLVQAGGSLTLSCAVSGLTFSNYAMGWFRQAPGKEREFVAAITWDGGNTYYTDSVKGRFTISRDNAKNTVFLQMNSLKPEDTAVYYCAAKLLGASRYELALAGYDYWGQGTQVTVSS
Consider B8, for which the binding result in data set [4] is given as “binds”.

B9: Variant Surface Glycoprotein VSG2, soluble purified form (natural protein, Trypanosoma brucei, UniProt P26332 27-459, looked up)
chain: AAEKGFKQAFWQPLCQVSEELDDQPKGALFTLQAAASKIQKMRDAALRASIYAEINHGTNRAKAAVIVANHYAMKADSGLEALKQTLSSQEVTATATASYLKGRIDEYLNLLLQTKESGTSGCMMDTSGTNTVTKAGGTIGGVPCKLQLSPIQPKRPAATYLGKAGYVGLTRQADAANNFHDNDAECRLASGHNTNGLGKSGQLSAAVTMAAGYVTVANSQTAVTVQALDALQEASGAAHQPWIDAWKAKKALTGAETAEFRNETAGIAGKTGVTKLVEEALLKKKDSEASEIQTELKKYFSGHENEQWTAIEKLISEQPVAQNLVGDNQPTKLGELEGNAKLTTILAYYRMETAGKFEVLTQKHKPAESQQQAAETEGSCNKKDQNECKSPCKWHNDAENKKCTLDKEEAKKVADETAKDGKTGNTNTTGSS
Consider B9, for which the binding result in the data set “crystal structure” is reported as “binds”.

B10: NB19_(VSG2) sortagged with FAM (VHH)
VHH: QVQLQESGGGLVQAGGSLRLSCAASERTFSSLGMGWFRQGPGKEREFAAAISWSGVSTYYADSVKGRFTISRDNDKNTVYLQMNSLKPDDTAVYYCAATSSWNDMALKSAGWYEYWGQGTQVTVSS
Regarding B10, the binding result in data set [3] was “binds”.

B11: NB19_(VSG2) mutant E114/Y115A (VHH)
VHH: QVQLQESGGGLVQAGGSLRLSCAASERTFSSLGMGWFRQGPGKEREFAAAISWSGVSTYYADSVKGRFTISRDNDKNTVYLQMNSLKPDDTAVYYCAATSSWNDMALKSAGWYAAWGQGTQVTVSS
B11: the binding result in data set [4] is recorded as “no binding”.

B12: NB19_(VSG2) mutant Y115A (VHH)
VHH: QVQLQESGGGLVQAGGSLRLSCAASERTFSSLGMGWFRQGPGKEREFAAAISWSGVSTYYADSVKGRFTISRDNDKNTVYLQMNSLKPDDTAVYYCAATSSWNDMALKSAGWYEAWGQGTQVTVSS
For B12, the binding result in data set [4] is given as “no binding”.

B13: NB19_(VSG2) (VHH)
VHH: QVQLQESGGGLVQAGGSLRLSCAASERTFSSLGMGWFRQGPGKEREFAAAISWSGVSTYYADSVKGRFTISRDNDKNTVYLQMNSLKPDDTAVYYCAATSSWNDMALKSAGWYEYWGQGTQVTVSS
In the case of B13, the binding result in data set [1] and in data set [4] was “binds” each time.

B14: NB19_(VSG2) mutant E114A (VHH)
VHH: QVQLQESGGGLVQAGGSLRLSCAASERTFSSLGMGWFRQGPGKEREFAAAISWSGVSTYYADSVKGRFTISRDNDKNTVYLQMNSLKPDDTAVYYCAATSSWNDMALKSAGWYAYWGQGTQVTVSS
Take B14: the binding result in data set [4] is “no binding”.

These data come from doi:10.1101/2021.01.13.426364 (bioRxiv, 2021).
